Source: publication PMC3834822, “Structure of an ‘open’ clamp type II topoisomerase-DNA complex provides a mechanism for DNA capture and transport”

B1: 34mer V-site DNA (dsDNA)
DNA 1: CAAAGGCGGTAATACGGTTATCCACAGAATCAGG
DNA 2: CCTGATTCTGTGGATAACCGTATTACCGCCTTTG
B2: 26mer E-site DNA (dsDNA)
DNA 1: AGGTCATGAATGACTATGCACGTAAA
DNA 2: TTTACGTGCATAGTCATTCATGACCT

Legend:
[1] = target: ParE-ParC55 fusion protein (topo IV) (Streptococcus pneumoniae 7785, UniProt Q59961 1-647+P72525:1-488, internal_change); assay: X-ray crystallography (3.7 A); 10 mM MgCl2, 2 mM levofloxacin added; drug-free complex; G-gate DNA bent, uncleaved; second linear B-form duplex at C-gate helices (ParC R468, K464, N461, H196); no ATP; Crystallization: protein in 20 mM Tris-HCl pH 7.5, 100 mM NaCl, 1 mM beta-mercaptoethanol, 0.05% Na azide, 10 mM MgCl2, 2 mM levofloxacin; 4I3H reservoir 50 mM; settings: protein: recombinant; tags: C-terminal His6; chain copies: 2; 34 bp duplex; 4-bp stagger between cleavage sites
ParE full-length;ParC55 = ParE full-length;ParC55 (Streptococcus pneumoniae;Streptococcus …, UniProt Q59961;P72525 1-647;1-488, |); assay: X-ray crystallography (6.5 A); 10 mM MgCl2, 2 mM levofloxacin; cleavage complex; Crystallization: protein in 20 mM Tris-HCl pH 7.5, 100 mM NaCl, 1 mM beta-mercaptoethanol, 0.05% Na azide, 10 mM MgCl2, 2 mM levofloxacin; 4I3H reservoir 50 mM; settings: protein: recombinant;recombinant; chain copies: 2;2; 26mer duplex; 4-bp stagger between cleavage sites

| Binder | binding result [1] | binding result (ParE full-length;ParC55) |
| --- | --- | --- |
| B1 | binds |  |
| B2 |  | binds |
